The values that follow come from patent publication US20250277199, “NOVEL CRISPR-CAS NUCLEASES FROM METAGENOMES” (Brain Biotech AG, published 2025).

In the data set the target is T1, BMC03 (uncultured bacterium (metagenome)).
T1 chain: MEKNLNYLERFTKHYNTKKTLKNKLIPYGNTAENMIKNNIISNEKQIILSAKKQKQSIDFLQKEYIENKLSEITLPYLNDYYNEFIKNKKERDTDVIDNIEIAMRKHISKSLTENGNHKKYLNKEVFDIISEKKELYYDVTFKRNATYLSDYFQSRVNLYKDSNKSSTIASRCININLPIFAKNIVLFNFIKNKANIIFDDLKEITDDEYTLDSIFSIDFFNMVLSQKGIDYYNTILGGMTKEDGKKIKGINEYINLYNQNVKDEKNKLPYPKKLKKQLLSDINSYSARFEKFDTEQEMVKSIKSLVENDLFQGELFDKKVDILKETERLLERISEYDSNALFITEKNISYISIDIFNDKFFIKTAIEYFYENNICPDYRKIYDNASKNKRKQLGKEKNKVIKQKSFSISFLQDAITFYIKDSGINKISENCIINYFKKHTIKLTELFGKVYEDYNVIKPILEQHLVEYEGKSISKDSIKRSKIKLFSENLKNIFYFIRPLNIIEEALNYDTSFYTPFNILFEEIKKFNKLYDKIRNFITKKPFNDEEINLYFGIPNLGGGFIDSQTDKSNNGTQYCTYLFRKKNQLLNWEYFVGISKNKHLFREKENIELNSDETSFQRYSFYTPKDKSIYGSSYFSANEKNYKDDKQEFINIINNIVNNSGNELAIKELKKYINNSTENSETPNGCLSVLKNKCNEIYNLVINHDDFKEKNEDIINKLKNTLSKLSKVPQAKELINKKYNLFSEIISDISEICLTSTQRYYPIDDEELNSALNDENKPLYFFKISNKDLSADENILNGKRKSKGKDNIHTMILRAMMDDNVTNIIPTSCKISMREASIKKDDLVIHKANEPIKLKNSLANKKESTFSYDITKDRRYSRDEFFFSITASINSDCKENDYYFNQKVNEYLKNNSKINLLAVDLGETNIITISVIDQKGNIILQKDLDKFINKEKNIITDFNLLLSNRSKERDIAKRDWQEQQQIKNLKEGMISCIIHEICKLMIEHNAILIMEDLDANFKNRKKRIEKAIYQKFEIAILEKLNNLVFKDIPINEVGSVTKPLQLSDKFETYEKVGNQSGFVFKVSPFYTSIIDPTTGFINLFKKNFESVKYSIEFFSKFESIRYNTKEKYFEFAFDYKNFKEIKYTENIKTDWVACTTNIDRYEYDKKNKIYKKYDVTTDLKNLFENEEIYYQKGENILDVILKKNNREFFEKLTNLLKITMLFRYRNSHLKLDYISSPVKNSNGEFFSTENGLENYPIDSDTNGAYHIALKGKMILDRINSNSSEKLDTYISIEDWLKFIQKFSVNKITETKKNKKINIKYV
Briefly: cell_activity; PAM not stated; E. coli depletion, 30 C. Summed up:
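E. coli carrying arabinose-induced (0.2%) BMC nuclease, grown at 30° C., made electrocompetent and electroporated with 50-100 ng plasmid carrying gRNA against malQ. Transformants plated on selective M9-glucose agar with kanamycin/ampicillin (± nourseothricin), and growth scored after 48 h at 30° C.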

B1: malQ gRNA (BMC stem-loop + 24 nt spacer) ; malQ protospacer (ssRNA ; dsDNA)
RNA: GAUUUCUACUAUUGUAGAUGUGGCGGUACGUUGAUGCAUCGCG
DNA 1: GTGGCGGTACGTTGATGCATCGCG
DNA 2: CGCGATGCATCAACGTACCGCCAC
Molecule B1 had an activity of over 99.9 % colony reduction.
